Source: paper PMC6411929, “H-NS uses an autoinhibitory conformational switch for environment-controlled gene silencing” (Nucleic Acids Research, 2018)

What was measured:
[1] = system: H-NS C-terminal region 84-137; assay: MST; conditions: MST: 50 mM Tris-HCl, 50 mM NaCl, 2 mM MgCl2, 0.005% Tween-20, pH not stated; anisotropy: 20 mM HEPES pH 7.5, 50 mM NaCl, 2 mM MgCl2, 25 or 37 C, 20 nM DNA
[2] = system: H-NS full length (H-NSFL); assay: fluorescence anisotropy; conditions: 25 C, 50 mM NaCl, 2 mM Mg2+, MST: 50 mM Tris-HCl, 2 mM MgCl2, 0.005% Tween-20, pH not stated, anisotropy: 20 mM HEPES pH 7.5, 50 mM NaCl, 2 mM MgCl2, 25 or 37 C, 20 nM DNA
[3] = system: H-NS full length (H-NSFL); assay: MST; conditions: room temperature (25 C), 50 mM NaCl, 2 mM Mg2+, MST: 50 mM Tris-HCl, 2 mM MgCl2, 0.005% Tween-20, pH not stated, anisotropy: 20 mM HEPES pH 7.5, 50 mM NaCl, 2 mM MgCl2, 25 or 37 C, 20 nM DNA
[4] = target: H-NS C-terminus (84–137) (Salmonella typhimurium) (UniProt P0A1S2); assay: MST; 20 nM NT-647-labelled H-NS C-terminus, serial dilutions of the unlabelled partner; 50 mM Tris-HCl, 50 mM NaCl, 2 mM MgCl2, 0.005% Tween-20; 30 min incubation; single-binding-site fit; also repeated at 100, 250, 500 and 1000 mM NaCl
[5] = target: H-NSΔs2 with an N-terminal mCherry fusion (mChH-NSΔs2) (Salmonella typhimurium) (UniProt P0A1S2); assay: dynamic light scattering; hydrodynamic radius against temperature, 5 to 60°C; protein at 125 to 500 μM; 150, 250 or 500 mM NaCl; pH 6, 7 or 8 (100 mM MES, MOPS or HEPES)
[6] = target: the molecule itself; assay: SAXS; H-NS 2-57,C21S in solution at 1-4 mg/ml, 10 to 42°C and a range of salt and buffer conditions (150 mM NaCl, 1 mM EDTA, 20 mM Tris pH 7.5 in Figure 2B); patterns compared with parallel and antiparallel site1 dimer models

13 bp AT-rich DNA
Kd [1]: 14.5 µM

101 bp DNA with four consensus H-NS motifs
Kd [2]: 10.2 µM | Kd [3]: 7.4 µM

H-NS N-terminus (2–57), unlabelled, pET-M construct with N-terminal His6-tag (from UniProt P0A1S2 2-57) (domain or fragment)
Kd [4]: 4.1 µM

H-NSΔs2 with an N-terminal mCherry fusion (mChH-NSΔs2) (from UniProt P0A1S2 1-137) (natural protein)
stoichiometry N [5]: 2

B1: Salmonella typhimurium H-NS_(2–57,C21S) (domain or fragment)
chain: SEALKILNNIRTLRAQARESTLETLEEMLEKLEVVVNERREEESAAAAEVEERTRK
notes: H-NS, Salmonella typhimurium, residues 2-57 (site1) with C21S
stoichiometry N [6]: 2
